{
  "source": "patent US20230405133A1",
  "about": "“PURIFIED MULTIVALENT PROTEIN-HYALURONIC ACID POLYMER CONJUGATES” (Valitor, Inc., priority 2022, published 2023)",
  "binders": {"B1": {"name": "Conjugate 19 (anti-VEGF VHH SEQ ID NO: 91 on hyaluronic acid, intermediate 2-6) (VHH)", "VHH": "DVQLVESGGGLVQPGGSLRLSCAASGRTFSSYSMGWFRQAPGKEREFVVAISKGGYKYDAVSLEGRFTISRDNAKNTVYLQINSLRPEDTAVYYCASSRAYGSSRLRLADTYEYWGQGTLVTVSS", "modifications": "peptide bound through the organic linker MP2H to hyaluronic acid (830 kDa); site of attachment not stated", "notes": "Multivalent peptide-hyaluronic acid conjugate (MVP); peptide valency 108; Method 2 intermediate; also called BI VHH anti-VEGF MVP"}, "B2": {"name": "Conjugate 22 (anti-VEGF VHH SEQ ID NO: 91 with aH linker SEQ ID NO: 21 on hyaluronic acid, intermediate 1-10) (VHH)", "VHH": "B1 VHH", "modifications": "C-terminal Cys of the peptide linker bound by its thiol to the maleimide of the organic linker MP2H on hyaluronic acid (830 kDa)", "notes": "Multivalent peptide-hyaluronic acid conjugate (MVP); peptide valency 18; Method 1 intermediate; also called BI VHH anti-VEGF MVP"}, "B3": {"name": "Conjugate 17 (anti-VEGF VHH SEQ ID NO: 91 on hyaluronic acid, intermediate 1-7) (VHH)", "VHH": "B1 VHH", "modifications": "peptide bound through the organic linker MP2H to hyaluronic acid (830 kDa); site of attachment not stated", "notes": "Multivalent peptide-hyaluronic acid conjugate (MVP); peptide valency 90; Method 1 intermediate; also called BI VHH anti-VEGF MVP"}, "B4": {"name": "Conjugate 23 (anti-VEGF VHH SEQ ID NO: 91 with aH linker SEQ ID NO: 21 on hyaluronic acid, intermediate 1-11) (VHH)", "VHH": "B1 VHH", "modifications": "C-terminal Cys of the peptide linker bound by its thiol to the maleimide of the organic linker MP2H on hyaluronic acid (830 kDa)", "notes": "Multivalent peptide-hyaluronic acid conjugate (MVP); peptide valency 33; Method 1 intermediate; also called BI VHH anti-VEGF MVP"}, "B5": {"name": "Conjugate 1 (anti-VEGF DARPin SEQ ID NO: 92 on hyaluronic acid, intermediate 5-4) (designed binder)", "chain": "GSDLDKKLLEAARAGQDDEVRILMANGADVNARDSTGWTPLHLAAPWGHPEIVEVLLKNGADVNAADFQGWTPLHLAAAVGHLEIVEVLLKYGADVNAQDKFGKTAFDISIDNGNEDLAEILQKAAGGGSGGGS", "modifications": "peptide bound through the organic linker MP2H to hyaluronic acid (830 kDa); site of attachment not stated", "notes": "Multivalent peptide-hyaluronic acid conjugate (MVP); peptide valency 68; Method 5 intermediate (high EDC, N-acylurea adducts); also called DARPin MVP (Method 5)"}, "B6": {"name": "Conjugate 2 (anti-VEGF DARPin SEQ ID NO: 92 on hyaluronic acid, intermediate 1-7) (designed binder)", "chain": "B5 chain", "modifications": "peptide bound through the organic linker MP2H to hyaluronic acid (830 kDa); site of attachment not stated", "notes": "Multivalent peptide-hyaluronic acid conjugate (MVP); peptide valency 117; Method 1 intermediate; also called DARPin MVP (Method 1)"}, "B7": {"name": "Conjugate 3 (anti-VEGF DARPin SEQ ID NO: 92 on hyaluronic acid, intermediate 5-5) (designed binder)", "chain": "B5 chain", "modifications": "peptide bound through the organic linker MP2H to hyaluronic acid (830 kDa); site of attachment not stated", "notes": "Multivalent peptide-hyaluronic acid conjugate (MVP); peptide valency 67; Method 5 intermediate; also called DARPin MVP (Method 5)"}, "B8": {"name": "HuNb42_A88P_aH_CYS (unconjugated) (VHH)", "VHH": "QVQLVESGGGLVQPGGSLRLSCAASGFAYSTYSMGWFRQAPGKEREAVATINSGTFRLWYTDSVKGRFTISRDNSKNTLYLQMNSLRPEDTAVYYCAARAWSPYSSTVDAGDFRYWGQGTLVTVSS", "notes": "Free peptide, not conjugated to hyaluronic acid"}, "B9": {"name": "Conjugate 28 (N42 anti-VEGF VHH, HuNb42 A88P aH_CYS, SEQ ID NO: 145, on hyaluronic acid, Method B intermediate) (VHH)", "VHH": "B8 VHH", "modifications": "C-terminal Cys bound by its thiol to the maleimide of the organic linker MP2H on hyaluronic acid (830 kDa)", "notes": "Multivalent peptide-hyaluronic acid conjugate; valency 129"}, "B10": {"name": "2H10_5MUT_aH_CYS (unconjugated) (VHH)", "VHH": "QVQLVESGGGLVQPGGSLRLSCLASGRRFSIEAMGWYRQAPGKQRELVAIIDSGGSTDYVDSAKGRFTISRDNSKNTVYLQMNSLRAEDTAVYYCNVIGSSWYGRGLDYWGQGTLVTVSS", "notes": "as for B8"}, "B11": {"name": "2H10_5MUT_aH_CYS MVP [140.3] (VHH)", "VHH": "B10 VHH", "modifications": "C-terminal Cys is the conjugation site", "notes": "Multivalent protein-hyaluronic acid conjugate"}},
  "key": {"Human VEGF 165 [1]": {"target": "T1, Human VEGF 165 (human, UniProt P15692-4 27-191)", "T1 construct": "Loaded on the BLI probe as the ligand; also called BLI ligand Human VEGF 165 (Avi tag, R&D Systems AVI-293-050); not shown: Avi tag", "T1 sequence (P15692 other isoform, or with tags, fused parts or gaps limits assumed)": "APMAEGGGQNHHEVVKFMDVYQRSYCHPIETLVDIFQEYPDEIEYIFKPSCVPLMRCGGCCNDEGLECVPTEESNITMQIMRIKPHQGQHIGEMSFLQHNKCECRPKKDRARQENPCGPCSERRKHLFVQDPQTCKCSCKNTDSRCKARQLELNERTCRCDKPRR", "assay": "BLI, VEGF 165 on probe, t = 0 (repeats Table 15); limit of detection"}, "Human VEGF 165 [2]": {"target": "T1, Human VEGF 165", "assay": "BLI; KD after 4 days at 37 °C against KD at t = 0"}, "Human VEGF 165 [3]": {"target": "T1, Human VEGF 165", "assay": "BLI, VEGF 165 on probe, conjugate as analyte, t = 0; value is the limit of detection"}, "Human VEGF 165 [4]": {"target": "T1, Human VEGF 165", "assay": "BLI, VEGF 165 on probe; sample aged 4 days at 37 °C"}, "Human VEGF 165 [5]": {"target": "T1, Human VEGF 165", "assay": "BLI, VEGF 165 on probe; sample aged 14 days at 37 °C"}, "Human VEGF 165 [6]": {"target": "T1, Human VEGF 165", "assay": "BLI; KD after 14 days at 37 °C against KD at t = 0"}, "Human VEGF 165 [7]": {"target": "T1, Human VEGF 165", "assay": "BLI, VEGF 165 on probe, t = 0 (repeats Table 15)"}, "Human VEGF 165 [8]": {"target": "T1, Human VEGF 165", "assay": "BLI, VEGF 165 on probe, conjugate as analyte, t = 0"}, "Human VEGF 165 [9]": {"target": "T1, Human VEGF 165", "assay": "BLI, VEGF 165 on probe; sample aged 32 days at 37 °C"}, "Human VEGF 165 [10]": {"target": "T1, Human VEGF 165", "assay": "BLI, VEGF 165 on probe, t = 0 (repeats Table 15); limit of detection; t = 0, fresh conjugate, not aged"}, "Human VEGF 165 [11]": {"target": "T1, Human VEGF 165", "assay": "BLI; KD after 32 days at 37 °C against KD at t = 0"}, "Human VEGF 165 [12]": {"target": "T1, Human VEGF 165", "assay": "BLI, VEGF 165 on probe; sample aged 11 days at 37 °C; limit of detection; aged 11 days at 37 C (sample 1)"}, "Human VEGF 165 [13]": {"target": "T1, Human VEGF 165", "assay": "BLI; KD after 11 days at 37 °C against KD at t = 0"}, "Human VEGF 165 [14]": {"target": "T1, Human VEGF 165", "assay": "BLI; KD after 28 days at 37 °C against KD at t = 0"}, "Human VEGF 165 [15]": {"target": "T1, Human VEGF 165", "assay": "BLI, VEGF 165 on probe; sample aged 14 days at 37 °C; limit of detection"}, "Human VEGF 165 [16]": {"target": "T1, Human VEGF 165", "assay": "BLI, VEGF 165 on probe; sample aged 28 days at 37 °C"}, "Human VEGF 165 [17]": {"target": "T1, Human VEGF 165", "assay": "BLI, VEGF binding affinity (KD, nM)"}, "Human VEGF 165 [18]": {"target": "T1, Human VEGF 165", "assay": "BLI, VEGF 165 on probe, conjugate as analyte"}},
  "data": [
    {"binder": "B1", "values": [
      {"measurement": "Kd", "setting": "Human VEGF 165 [1]", "value": "< 1", "unit": "pM"},
      {"measurement": "Change in KD to t = 0", "setting": "Human VEGF 165 [2]", "value": 185, "unit": "fold"},
      {"measurement": "Kd", "setting": "Human VEGF 165 [3]", "value": "< 1", "unit": "pM"},
      {"measurement": "Kd", "setting": "Human VEGF 165 [4]", "value": 185, "unit": "pM"}
    ]},
    {"binder": "B2", "values": [
      {"measurement": "Kd", "setting": "Human VEGF 165 [1]", "value": "< 1", "unit": "pM"},
      {"measurement": "Change in KD to t = 0", "setting": "Human VEGF 165 [2]", "value": 5870, "unit": "fold"},
      {"measurement": "Kd", "setting": "Human VEGF 165 [5]", "value": 142, "unit": "pM"},
      {"measurement": "Kd", "setting": "Human VEGF 165 [3]", "value": "< 1", "unit": "pM"},
      {"measurement": "Kd", "setting": "Human VEGF 165 [4]", "value": 5870, "unit": "pM"},
      {"measurement": "Change in KD to t = 0", "setting": "Human VEGF 165 [6]", "value": 142, "unit": "fold"}
    ]},
    {"binder": "B3", "values": [
      {"measurement": "Change in KD to t = 0", "setting": "Human VEGF 165 [2]", "value": 178, "unit": "fold"},
      {"measurement": "Kd", "setting": "Human VEGF 165 [7]", "value": 4, "unit": "pM"},
      {"measurement": "Kd", "setting": "Human VEGF 165 [5]", "value": 911, "unit": "pM"},
      {"measurement": "Kd", "setting": "Human VEGF 165 [4]", "value": 713, "unit": "pM"},
      {"measurement": "Kd", "setting": "Human VEGF 165 [8]", "value": 4, "unit": "pM"},
      {"measurement": "Change in KD to t = 0", "setting": "Human VEGF 165 [6]", "value": 228, "unit": "fold"}
    ]},
    {"binder": "B4", "values": [
      {"measurement": "Kd", "setting": "Human VEGF 165 [1]", "value": "< 1", "unit": "pM"},
      {"measurement": "Change in KD to t = 0", "setting": "Human VEGF 165 [2]", "value": 6960, "unit": "fold"},
      {"measurement": "Kd", "setting": "Human VEGF 165 [5]", "value": 1950, "unit": "pM"},
      {"measurement": "Kd", "setting": "Human VEGF 165 [3]", "value": "< 1", "unit": "pM"},
      {"measurement": "Kd", "setting": "Human VEGF 165 [4]", "value": 6960, "unit": "pM"},
      {"measurement": "Change in KD to t = 0", "setting": "Human VEGF 165 [6]", "value": 1950, "unit": "fold"}
    ]},
    {"binder": "B5", "values": [
      {"measurement": "Kd", "setting": "Human VEGF 165 [9]", "value": 75, "unit": "pM"},
      {"measurement": "Kd", "setting": "Human VEGF 165 [10]", "value": "< 1", "unit": "pM"},
      {"measurement": "Change in KD to t = 0", "setting": "Human VEGF 165 [11]", "value": 75, "unit": "fold"},
      {"measurement": "Kd", "setting": "Human VEGF 165 [12]", "value": "< 1", "unit": "pM"},
      {"measurement": "Kd", "setting": "Human VEGF 165 [3]", "value": "< 1", "unit": "pM"},
      {"measurement": "Change in KD to t = 0", "setting": "Human VEGF 165 [13]", "value": 1, "unit": "fold"}
    ]},
    {"binder": "B6", "values": [
      {"measurement": "Change in KD to t = 0", "setting": "Human VEGF 165 [14]", "value": 17, "unit": "fold"},
      {"measurement": "Kd", "setting": "Human VEGF 165 [1]", "value": "< 1", "unit": "pM"},
      {"measurement": "Kd", "setting": "Human VEGF 165 [15]", "value": "< 1", "unit": "pM"},
      {"measurement": "Kd", "setting": "Human VEGF 165 [3]", "value": "< 1", "unit": "pM"},
      {"measurement": "Kd", "setting": "Human VEGF 165 [16]", "value": 17, "unit": "pM"},
      {"measurement": "Change in KD to t = 0", "setting": "Human VEGF 165 [6]", "value": 1, "unit": "fold"}
    ]},
    {"binder": "B7", "values": [
      {"measurement": "Kd", "setting": "Human VEGF 165 [3]", "value": "< 1", "unit": "pM"}
    ]},
    {"binder": "B8", "values": [
      {"measurement": "binding result", "setting": "Human VEGF 165 [17]", "value": "binds"}
    ]},
    {"binder": "B9", "values": [
      {"measurement": "Kd", "setting": "Human VEGF 165 [18]", "value": 1.07, "unit": "pM"}
    ]},
    {"binder": "B10", "values": [
      {"measurement": "binding result", "setting": "Human VEGF 165 [17]", "value": "binds"}
    ]},
    {"binder": "B11", "values": [
      {"measurement": "binding result", "setting": "Human VEGF 165 [17]", "value": "binds"}
    ]}
  ]
}
